The target of this experiment is endostatin (EntreMed, Inc.) (UniProt P39060). Nature of the experiment: SPR (Biacore), Fn F4-5-His6 immobilized, endostatin at 0-800 nM, maximum RU against concentration. For orientation: SPR reads the build-up and loss of mass on a sensor chip optically.
Chain of endostatin (EntreMed, Inc.) (P39060 1572-1754): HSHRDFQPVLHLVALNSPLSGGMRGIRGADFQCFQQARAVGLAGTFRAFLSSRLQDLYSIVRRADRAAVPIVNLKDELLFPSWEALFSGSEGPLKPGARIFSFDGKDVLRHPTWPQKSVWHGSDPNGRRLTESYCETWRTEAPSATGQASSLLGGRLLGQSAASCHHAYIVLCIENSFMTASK

As to “Fn F4-5-His6 (fibronectin type I domains 4-5, expressed in S. cerevisiae) (from UniProt P02751 182-276)”, the concentration of ligand that results in half maximum binding was 800 nM.

For the origin of these results see patent publication US20080220446A1, “Method for Detecting and/or Removing Protein and/or Peptide Comprising a Cross-Beta Structure From an Aqueous Solution Comprising a Protein” (priority 2005, published 2008).
